This data set is described as follows: soluble fraction after stress (log2 fold change); higher = more stays soluble; pooled small domains, quantitative proteomics. The following applies: stress: pH 4. In outline: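 Aggregation propensity is estimated from the fold change in each domain's soluble amount after acid stress. Pooled small-domain libraries were stressed at pH 4, and higher log2 values mean more stayed soluble.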
“HMQLPFTPREHEITQLLSRGLSNRQIAEALSLSVRTVEGHIYQASTKLGISSRSELAVLVGQFA”: the “soluble fraction (log2)” value is -0.967.

As for “HMQLSQLLQPFDINAFKGHPLYTEENVKMFNDYTNRVKEWTKGTPYEQYWVTKEGQPTMLAWDSFKK”, the “soluble fraction (log2)” value is -1.07.

For the sequence “HMQLTQEAIENLFKITTAKKFREELEKLVVTDSEKKAFAYFTVYHPKLKELPFAILKSVENYTGISI”, the “soluble fraction (log2)” value is -0.319.

Turning to “HMQLVPGIGRLSARELEVFTLIGRGLGTSEIGKKLGVSAYTVQTHRNHIKEKLNLPNAAAITYWAIQWAHG”, the “soluble fraction (log2)” value was -0.338.

Consider “HMQMEDTDALLQVAKEVVAENQDTVEAYLGGREKAFASLIGAAMKKTRGKANPKVIRQLILDLIQ”, for which the “soluble fraction (log2)” value was -0.432.

For “HMQMEISQRIKLERQTLKWTQEELADKIFVSKRTISNWETGRTVPDIESVLRLAKVFHVSLEDLLL”, the “soluble fraction (log2)” value was -0.021.

As to “HMQMEYEKAIAYILDKIKSGELSIGSKLPAERVIADTLHIGRNSTREALSILHGMGMVDRVHGSGNYISEH”, the “soluble fraction (log2)” value is -0.111.

With “HMQMLQDPFLNALRKEHVPVSIYLVNGIKLQGQVESFDQYVVLLRNTSVTQMVYKHAISTIVPARAVSL”, the “soluble fraction (log2)” value was -0.412.

Consider “HMQMRKENKILVTDIGEIDEVKVIFDDDNKPYLYSYNGEDEFYRPDETYKFFDNKEQAEEYVREN”, for which the “soluble fraction (log2)” value is -0.891.

“HMQMSPREKMIYSFIESHPGTKSGEIAEKLNVPLPTVKRILSEMVSGNFIAKHGSGIGTNYSTEK”: the “soluble fraction (log2)” value was at least 0.43.

As for “HMQMSWDAVKARLQDIVNNEDKTKPFNDEMLASKLKEQGIEIARRTVVKYRQQLGIPAARLRKK”, the “soluble fraction (log2)” value is -0.17.

For the sequence “HMQNAETPDVAAEFRTWTSADGQFQVIAKLVKLDGESVHLERQDDGRQIAVPLGKLSSEDRLFLRGVRP”, the “soluble fraction (log2)” value is -0.0636.

As for “HMQNEQIAFSKFLQEVDSGRVVQVEIQGNNIKGILSDGSKFYTYSPNYPELVGKLSEKGVNIVASPVE”, the “soluble fraction (log2)” value was 0.0117.

With “HMQNFLSITSKEKIDIGNFQLISFKFENNLYDYVISGNKSELLIFQEKTIENNNENIEKITSNF”, the “soluble fraction (log2)” value was -0.847.

For “HMQNLETVEEIKELALNYLDKYQPSKKSLQVYLFRKAIDAQSNSVEKSEILKKIETVLTDLEEQGILNDAL”, the “soluble fraction (log2)” value was -0.139.

Take “HMQNMVYVATKDIPAGGVIDQDSVSKTAISTSIDTSLYITDDDLGKIAVVNISQGQSVFSNMVGT”: the “soluble fraction (log2)” value is -0.585.

As to “HMQNNITISKEIELRTGPDDTYPTLKKVTAGDNVEMLSKSDTWYEIKTNDSFVGWVPGWSIL”, the “soluble fraction (log2)” value is -0.656.

With “HMQNSYSVEDLALKAGLSVDTIRYYQGLDLIAPPQKNGRRAIYGDEHLSRLDEIKKLALEGFSLRQISLLK”, the “soluble fraction (log2)” value was -1.02.

With “HMQNYNLTQQEKKVLQLLVSGKSYKMIAAELNVAFDTVKSHITNIYSKLHVHSGTEAVSVAIRDKI”, the “soluble fraction (log2)” value was found to be 0.199.

Regarding “HMQPDDELVRLLLIKIFNDKQLKVNPAVINYLLRRIDRSFESINNFVKKIDEFSLEKGRKITVNLVSGFF”, the “soluble fraction (log2)” value was -1.43.

As for “HMQPFTELTPREREILGHLAEGQSNKVIARHLDISDGTVKLHVKAILRKLGVHSRVEAAVMAVEHGIR”, the “soluble fraction (log2)” value came out at 0.4.

Regarding “HMQPIEIQDRITKAFERSAALEAKNINVEVDGHTVKLTGTVHSLTEKEEARKAAFFAPGVTKVENHLIVDY”, the “soluble fraction (log2)” value was -0.0498.

Take “HMQPMIQIHTLANHAPVALHIKRNTQRNIIIRARDASSLNLSIPKWFSPAQLQNWLRDNEATLIRILQQAP”: the “soluble fraction (log2)” value is -0.256.

As for “HMQPPKIISTVEPYREVVREYLKQGVEMTAIWQRLRENYQYTGSYSSVRRFVAQLEPRQPEA”, the “soluble fraction (log2)” value was -0.135.

In the case of “HMQPQLFRVIADDGLNIRSGPGPEYPPVAPMLRKGTQVELLQAGDRWSKVEVVGSTDVEGWVNQRYLQAV”, the “soluble fraction (log2)” value amounted to 0.0927.

“HMQPSQTLSATVEFPDRLDRFLALAFPEVSRARFQRLIAEGHVSVEGVPATEIRHKLKAGQRVEAVIPPA”: the “soluble fraction (log2)” value is 0.197.

Consider “HMQPTVEGLMKALETMTFNERTALALHYGLTGRQPMTFMAIGRYLGISDGRAEALVNSAIRKLR”, for which the “soluble fraction (log2)” value amounted to 0.0497.

On to “HMQQGVEQLPVTEVGGRLMHYYEVQPKETLYSLSHKLGVGQEYIEQHNPSVRGGLRAFMTLYFPAA”, for which the “soluble fraction (log2)” value was -0.12.

Take “HMQQIAVDLSEFKPRLMRDMSSMLAGLYTHDLDLSSLDFSKVANFTFMFRGAIITGTLKMPKI”: the “soluble fraction (log2)” value was determined as 0.109.

Consider “HMQQLDDDTVAYVADNGIAVKSKNGKELSVDTSGLSYDIIMDMFRNLPRNGDFFSSKYWSDNIQKAQAR”, for which the “soluble fraction (log2)” value was -1.34.

Consider “HMQQLIEFSVTKGHPWINKKIMDLNLPENQLILTIQREGHVVSAEGKTIILENDRITISTDDR”, for which the “soluble fraction (log2)” value is -1.43.

Regarding “HMQQPVVVQQNQTVRVVTGGPGFQVANEGRALNNGLAGQVVQVRLGNGQIISGIARAGGIVEIL”, the “soluble fraction (log2)” value came out at 0.22.

Regarding “HMQQSQLDDIKSVVGGDEGYNKLREWTQANVPDETLKAFDKILDTQDPTMIKVAVEGFAAQMRQAE”, the “soluble fraction (log2)” value was -0.508.

For “HMQQTAEDWKNKGDSLTAQSEYVEAIAAYDEAIRLDPNYAPAWSNKGNALKNLGEYYKAIQAYDEAIRL”, the “soluble fraction (log2)” value was -1.

Consider “HMQQYLDAYDKALAFGIAMNKLPSYENLTLDDKEDVDKLKEIYDGMSNYEKTFVAKDFTDKLDRYVKRIE”, for which the “soluble fraction (log2)” value was found to be 0.144.

As to “HMQRADYLILYYIKMQAEQHPDSKVYLADLAAVMGLKVTELSKAVEKLQDNGFVAWKTDREAGRTYVELS”, the “soluble fraction (log2)” value is -0.89.

“HMQRIFIDNHDRILYYSNPAGYIAGKEAVVDTMFQTQELERFLQKQSLSIRWEDGVYDRLLLGQ”: the “soluble fraction (log2)” value was -0.725.

With “HMQRRHESTPIPADFDYAAVRGLSAEVQQKLERVRPLSIGQAQRIPGMTPAAISLLLVHLERQRRSRV”, the “soluble fraction (log2)” value worked out at 0.00221.

In the case of “HMQRSVKNNDTVQVHYTGKLTNGQIFDSSIDKQPLEFQLGQGQIIPGFEKGLIDMTVSEKKTITIPEAEAY”, the “soluble fraction (log2)” value stood at 0.133.

On to “HMQSAEMTLDREGQPVQVRVELTGNEARITFLSDQEQTREALDAGMAQLRELLEQQGMVLAGVTV”, for which the “soluble fraction (log2)” value is -0.491.

For “HMQSDQLSDREREILRLIGSGRTNQEISQELQVSGSTVRTHLQHILDKLGLENRNQAVLYAIRIGLAAPP”, the “soluble fraction (log2)” value is -0.372.

As to “HMQSHGSRIWTDITGNFTREASFIELAEGKVTLQLTDGRRTIISFEILSKKDQEYVLDIGDS”, the “soluble fraction (log2)” value was -1.95.

Consider “HMQSKDDLLDTFRVVKGNAALLNDQNKKLIRSLKVSSFGFTGITDQAAEVKKEMPDVLLEKASIEDILF”, for which the “soluble fraction (log2)” value is -0.595.

“HMQSLAAKINGYIVAQRTSIAAIAKEIGYSRVTVSRYLAGKYDSDPTGIEAKLAAFLAGQTGEE”: the “soluble fraction (log2)” value was 0.114.

Regarding “HMQSNIHELQKKLNEALQALSEDHRAVVTMFDIQGMPHAEISKILGVSEGTVRSRLYYAHQQLQGHL”, the “soluble fraction (log2)” value is -0.663.

On to “HMQSRYALLAGMLRARITEGDWVPGSAIPAETVLAKEHGVALGTMRQAIALLVSQGLLERQHGRGTFVRS”, for which the “soluble fraction (log2)” value was -0.0211.

As for “HMQSSDQTDNIYENAVSIVLETGKASASHLQRVLGIDYNLAAHLIDKMEDGGLLSPPNYLGHRDVYGYT”, the “soluble fraction (log2)” value was -1.06.

Consider “HMQTFNADDIEPIIKEILQENPKAISDFLTGNENVVKFLLGQVMKNTKGKANPKVIEELLINQLRELNN”, for which the “soluble fraction (log2)” value is -0.663.

For the sequence “HMQTGYHVRITASTLNVRRDHSASSAVATQVRRGEVYTIVDEYNNGGTLWGKLKSGAGWIALKYTQS”, the “soluble fraction (log2)” value was at least 0.43.

In the case of “HMQTTITITNTVTGQKAQFPPPFNPMSLSKIGVDETFEKEVFVDGVDTFGYGLDGYLTFYELKDFLRSYQ”, the “soluble fraction (log2)” value was -2.

“HMQVEYTRGELLQDLKEENVLYATITPSRETPTGEVDFVFKDKSIKTLYVTDVSEIEGLLMDYGIDPEVKK”: the “soluble fraction (log2)” value was -0.367.

In the case of “HMQVITEPFQEKYREFINMSTVTQRLEERETLSFTAQTVEGRWLTIIIVPQGYDKTGKLSTVLVANR”, the “soluble fraction (log2)” value was 0.111.

As to “HMQVSDEGAIQLLVQKAIEENPQAIEAFRGGKTSALGPVVGWVMKQSKGAANPTMVKTLLEKAI”, the “soluble fraction (log2)” value came to 0.378.

Take “HMQVVVEKSKEKVIISGNQYYIHIVKKGETAFSIAKAYGITVDELVKNNPSAATVLKEGQALRIPVVE”: the “soluble fraction (log2)” value worked out at 0.22.

In the case of “HMQYDESSQLGERFLNQALNALKADPDKVGDAQWEKLLKENSAKSRQEVLADIGLGKQLAIVIARELLS”, the “soluble fraction (log2)” value was -0.37.

Turning to “HMQYPSSLDSRAKQSLYDNLERNEILALALDNVIQSNKLDGWRDGGIKERKLRLAINNLLKNDEHTDNIME”, the “soluble fraction (log2)” value is -0.284.

Turning to “HMQYQIITENGKQYYLYTVQKSEGFYSIGKRFEITNDEIIKANPEAALGLKLGQVLKIPVYK”, the “soluble fraction (log2)” value is -0.131.

“HMRAAKSEDTRTRLIEGGMALFGQKGYNATGIKDITDAAGVPKGSFYNYFASKEDFGAEIIHSY”: the “soluble fraction (log2)” value was -0.0559.

With “HMRAEELEQFVERLKNEVMNNFPLKELSDNELREKIENLVEIRLANVYVSIEQRVAIAEQIYSSIR”, the “soluble fraction (log2)” value is -0.633.

Consider “HMRAERVQITDPYIELHTGPGRGFPIFFVAPREQWISIELRHTDWFKVRAVGGQVGWVQRKQLEST”, for which the “soluble fraction (log2)” value is -0.295.

“HMRAGHDFEALKHIESSLDKHLTDEGIKIKSEKRGAIVARWYQSHVEGREVTDDDVHTWIELFF”: the “soluble fraction (log2)” value was -2.2.

For the sequence “HMRAPIGFRISNRRKSLKISQVALARLVGISPSYLNLIENNKRDVGGALLQRVALHLNIDIDDL”, the “soluble fraction (log2)” value is -0.219.

As for “HMRARTLSTTGGESLLTLAESLYPDDDRARARFIEATAAANPKLFADIAALTRVLPAGTTLRMPDLRA”, the “soluble fraction (log2)” value was found to be 0.129.

In the case of “HMRARTQYWPFVEEKAAELKLPLHLVNVEPLFGEQKVVVHYTANGRIDFRELVHLLARRFHARIEMR”, the “soluble fraction (log2)” value came to 0.0493.

In the case of “HMRATLTDETARVVQEPTSESISLTSLRKGEEFEIGKVIRKKKEVWVTVTTSSGVKGYISGDTHIF”, the “soluble fraction (log2)” value was at least 0.43.

Take “HMRAVFEQLRIGQTLAGVVKAQEKGFSLVEIDGQTVAMRLPHPAAVGDTLRLRFAGHMPQAVFLLES”: the “soluble fraction (log2)” value is -0.178.

With “HMRAVPSIAFVTQKLIEQGVTMEQLVRSLLLDHEEYENDDSLERTADELFGKARMIISNYTPE”, the “soluble fraction (log2)” value was -1.04.

On to “HMRDADRYAFMQENVEDFAKDMRRKHMTYDVLYEEYIRRTDNPYGYTQFKAIVQEYEKNHDYK”, for which the “soluble fraction (log2)” value is 0.253.

With “HMRDGYEKPTEVGEGGRNPAMLSYIGHLRAKGHLSEEDIRSMAHGFNATTFDPPLDRDEVDGLVSRY”, the “soluble fraction (log2)” value was at least 0.43.
